Data reported in PMC7160950, “Identification and analysis of KLF13 variants in patients with congenital heart disease” (BMC Medical Genetics, 2020).

Target: Kruppel-like factor 13 (KLF13), wild type, myc-tagged (human, UniProt Q9Y2Y9 1-288)
Experiment: cell-based or functional assay

Sequence of Kruppel-like factor 13 (KLF13), wild type, myc-tagged (Q9Y2Y9 whole entry): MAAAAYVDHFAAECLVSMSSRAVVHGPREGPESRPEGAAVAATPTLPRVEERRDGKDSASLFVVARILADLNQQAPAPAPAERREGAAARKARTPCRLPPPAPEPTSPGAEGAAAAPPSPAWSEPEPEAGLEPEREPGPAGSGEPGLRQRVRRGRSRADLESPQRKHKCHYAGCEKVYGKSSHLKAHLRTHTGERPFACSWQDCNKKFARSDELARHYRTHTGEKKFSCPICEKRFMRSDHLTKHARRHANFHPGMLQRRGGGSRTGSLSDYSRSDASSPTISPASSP

B1: TBX5 (natural protein, UniProt Q99593 1-518, looked up)
chain: MADADEGFGLAHTPLEPDAKDLPCDSKPESALGAPSKSPSSPQAAFTQQGMEGIKVFLHERELWLKFHEVGTEMIITKAGRRMFPSYKVKVTGLNPKTKYILLMDIVPADDHRYKFADNKWSVTGKAEPAMPGRLYVHPDSPATGAHWMRQLVSFQKLKLTNNHLDPFGHIILNSMHKYQPRLHIVKADENNGFGSKNTAFCTHVFPETAFIAVTSYQNHKITQLKIENNPFAKGFRGSDDMELHRMSRMQSKEYPVVPRSTVRQKVASNHSPFSSESRALSTSSNLGSQYQCENGVSGPSQDLLPPPNPYPLPQEHSQIYHCTKRKEEECSTTDHPYKKPYMETSPSEEDSFYRSSYPQQQGLGASYRTESAQRQACMYASSAPPSEPVPSLEDISCNTWPSMPSYSSCTVTTVQPMDRLPYQHFSAHFTSGPLVPRLAGMANHGSPQLGEGMFQHQTSVAHQPVVRQCGPQTGLQSPGTLQPPEFLYSHGVPRTLSPHQYHSVHGVGMVPEWSDNS
BNP-luciferase reporter activation in NIH 3 T3 cells cotransfected with KLF13 and TBX5: ≤ 75 fold
